These results are taken from patent publication US20220204627A1 (WILLIAM ROBERT ARATHOON LIVING TRUST DATED AUGUST 29 2016, published 2022).

In one assay the target is T1, human CD47 on cells (human, UniProt Q08722 19-323).
T1 construct: also called KT14 (target name); leukocyte surface antigen CD47
Nature of the assay: flow cytometry on human red blood cells (h408 RBC), Alexa Fluor 647 channel.

The target of assay [1] is T2, human P Glycoprotein (Pgp) / Multidrug resistance protein 1 (MDR1), gene ABCB1, on cells (human, UniProt P08183 1-1280). The assay can be described thus: cell-based or functional assay.
Assay [2] deals with T3, cynomolgus CD47 on erythrocytes (cynomolgus, UniProt A0A5F8AK49 19-323 (rhesus entry)).
T3 construct: whole, on cells; also called cynomolgus RBCs
The assay can be described thus: flow cytometry on cynomolgus red blood cells (cy807 RBC), Alexa Fluor 647 channel.

The target of assay [3] is T2, human P Glycoprotein (Pgp) / Multidrug …. The assay can be described thus: FACS on 293T-B1OX cells (overexpressing MDR1).
For assay [4] the target is unchanged. Nature of the assay: FACS on 293T cells overexpressing MDR1 (column MDR1 FACS).
Assay [5] has the same target. Nature of the assay: flow cytometry on 293T cells stably expressing human ABCB1 (293T_ABCB1_OX; the cells also carry CD47); 293T_ABCB1_OX cells: Pgp overexpressed, CD47 also present.
The target of assay [6] is T4, human CD47-Fc fusion protein (R&D systems) (human, UniProt Q08722 19-141).
T4 construct: Bought (R&D systems); also called Fc-tagged CD47; not shown: Fc part of the bought fusion protein
Nature of the assay: ELISA, plate coated with human CD47-Fc. More on the design: Bmax: unit not given here.

The target in assay [7] is T4, human CD47-Fc fusion protein (R&D …). The assay can be described thus: ELISA, Fc-tagged CD47 coated on the plate.
Assay [8] has the same target. Nature of the assay: ELISA, binding to CD47. Further details: Bmax: unit not given here. A general note: ELISA stands for enzyme-linked immunosorbent assay.
Assay [9] deals with T5, EGFR on 293T cells overexpressing EGFR (UniProt P00533 25-1210, limits assumed).
T5 construct: whole, on cells
The assay can be described thus: FACS on 293T-EGFR OX cells.

B1: anti-MDR1 antibody MRK16 (recombinant, human IgG1/Kappa) (antibody, V domains shown)
VH: EVILVESGGGLVKPGGSLKLSCAASGFTFSSYTMSWVRQTPEKRLEWVATISSGGGNTYYPDSVKGRFTISRDNAKNNLYLQMSSLRSEDTALYYCARYYRYEAWFASWGQGTLVTVSA
VL: DVLMTQTPVSLSVSLGDQASISCRSSQSIVHSTGNTYLEWYLQKPGQSPKLLIYKISNRFSGVPDRFSGSGSGTDFTLKISRVEAEDLGVYYCFQASHFPRTFGGGTKLEIK
For orientation: EC50 means the midpoint of the concentration-response curve. For the molecule B1, in the assay with human CD47 on cells, the “R4 (percent of red blood cells in the positive gate R4)” value was found to be 0.867% and the binding result is “no binding”. In addition, in assay [1], the “Vincristine IC50 (nM) on N6/ADR cells with antibody at 50 ug/mL” value (shortened to “Vincristine IC50 (nM) on N6/ADR cells”) turned out to be 0.734 nM. In assay [2], the “R4 (percent of red blood cells in the positive gate R4)” value turned out to be 0.801% and the binding result was “no binding”. The same molecule registered an EC50 in assay [3] of 58.8 nM.

B2: UIC2 DD HC::cetuximab KK HC::MRK16 LC (bispecific antibody, V domains shown)
VH 1: AVQLQQSGPELVKTGASVKISCKASGYSFSNYYIHWVKQSHGKSLEWIGFISCYNGATFYNQKFKGKATFTVDTSSSTAYMKFNSLTFEDSAVYYCARLPIQFGNFYPMDYWGQGTSVTVSS
VH 2: not shown
VL: DVLMTQTPVSLSVSLGDQASISCRSSQSIVHSTGNTYLEWYLQKPGQSPKLLIYKISNRFSGVPDRFSGSGSGTDFTLKISRVEAEDLGVYYCFQASHFPRTFGGGTKLEIK
notes: DD / KK charge pair substitutions in the IgG1 heavy chains; common light chain
Consider B2, for which the binding result in [4] is “no binding”.

B3: Ab1 (15D3 IgG1 DD / KT14 IgG1 KK / MRK16 VL-Hz1) (bispecific antibody, V domains shown)
VH 1: EVKVVESGGVLVRPGGSLKLSCAASGFTFSRYTMSWVRQTPEKRLEWVATISSGGGNTYYPDSVKGRFTVSRDNAMSSLYLQMSSLRSEDTALYYCARYGAGDAWFAYWGQGTLVTVSA
VH 2: QVQLVQSGAEVKKPGASVKVSCKASGYTFTNYNMHWVRQAPGQRLEWMGTIYPGNDDTSYNQKFKDRVTITADTSASTAYMELSSLRSEDTAVYYCARGGYRAMDYWGQGTLVTVSS
VL: DIVMTQTPLSSPVTLGQPASISCRSSQSIVHSTGQTYLEWYQQRPGQPPRLLIYKISNRFSGVPDRFSGSGAGTDFTLKISRVEAEDVGVYYCFQASHFPRTFGQGTKLEIK
notes: Human IgG1 heavy chains with DD (K392D, K409D) on the 15D3 arm and KK (E356K, D399K) on the KT14 (5F9) arm; kappa light chain
In the case of B3, the “Vincristine IC50 (nM) on N6/ADR cells” value in assay [1] came out at 0.002 nM. In assay [5], the midpoint of the response, the EC50, lay at 75.5 nM.

B4: 5F9/M89 (5F9 heavy chain with M89 light chain) (antibody, human IgG1, V domains shown)
VH: QVQLVQSGAEVKKPGASVKVSCKASGYTFTNYNMHWVRQAPGQRLEWMGTIYPGNDDTSYNQKFKDRVTITADTSASTAYMELSSLRSEDTAVYYCARGGYRAMDYWGQGTLVTVSS
VL: EIVLTQSPATLSLSPGERATLSCRASQSVGGSYLAWYQQKPGQAPRLLIYGASRRATGIPARFSGSGSGTDFTLTISSLQPEDFASYFCQQTNTFPLTFGGGTKVEIK
notes: Light chain shuffle construct; human IgG1 / kappa constant regions
A word on the Kd: it is a measure of binding affinity in units of concentration. Turning to B4, in assay [6], the Bmax stood at 4.22 and binding was characterised by a dissociation constant (Kd) of 1510 nM.

B5: KBisP1.1 bispecific antibody (15D3 IgG1 DD/5F9 IgG1 KK/MRK16) (bispecific antibody, V domains shown)
VH 1: EVKVVESGGVLVRPGGSLKLSCAASGFTFSRYTMSWVRQTPEKRLEWVATISSGGGNTYYPDSVKGRFTVSRDNAMSSLYLQMSSLRSEDTALYYCARYGAGDAWFAYWGQGTLVTVSA
VH 2: QVQLVQSGAEVKKPGASVKVSCKASGYTFTNYNMHWVRQAPGQRLEWMGTIYPGNDDTSYNQKFKDRVTITADTSASTAYMELSSLRSEDTAVYYCARGGYRAMDYWGQGTLVTVSS
VL: DVLMTQTPVSLSVSLGDQASISCRSSQSIVHSTGNTYLEWYLQKPGQSPKLLIYKISNRFSGVPDRFSGSGSGTDFTLKISRVEAEDLGVYYCFQASHFPRTFGGGTKLEIK
notes: 15D3 VH on human IgG1 with K392D and K409D (DD), 5F9 VH on human IgG1 with E356K and D399K (KK), EU numbering; also called KNJYBisP1.1; KBis1.1
On to B5, for which the “R4 (percent of red blood cells in the positive gate R4)” value with human CD47 on cells was found to be 0.609%. The molecule further registered a dissociation constant (Kd) in [7] of 145 nM. In addition, the “Vincristine IC50 (nM) on N6/ADR cells” value in assay [1] was 0.0461 nM. Moreover, in [2], the “R4 (percent of red blood cells in the positive gate R4)” value is 0.483% and the binding result is listed as “no binding”. In assay [5], the EC50 stood at 40.3 nM.

B6: 15D3/5F9 (15D3 heavy chain with 5F9 light chain) (antibody, human IgG1, V domains shown)
VH: EVKVVESGGVLVRPGGSLKLSCAASGFTFSRYTMSWVRQTPEKRLEWVATISSGGGNTYYPDSVKGRFTVSRDNAMSSLYLQMSSLRSEDTALYYCARYGAGDAWFAYWGQGTLVTVSA
VL: DIVMTQSPLSLPVTPGEPASISCRSSQSIVYSNGNTYLGWYLQKPGQSPQLLIYKVSNRFSGVPDRFSGSGSGTDFTLKISRVEADVGVYYCFQGSHVPYTFGQGTKLEIK
notes: as for B4
On to B6, for which, in assay [8], the Bmax is 3.1 and the equilibrium dissociation constant (Kd) turned out to be 252 nM.

B7: 5F9/15D3 (5F9 heavy chain with 15D3 light chain) (antibody, human IgG1, V domains shown)
VH: QVQLVQSGAEVKKPGASVKVSCKASGYTFTNYNMHWVRQAPGQRLEWMGTIYPGNDDTSYNQKFKDRVTITADTSASTAYMELSSLRSEDTAVYYCARGGYRAMDYWGQGTLVTVSS
VL: DVLMTQTPLSLPVSLGDQASISCRSSQSIVHSTGNTYLEWYLQKPGQSPKLLIYKVSNRFSGVPDRFSGSGSGTDFTLKISRLEAEDLGVYYCFQGSHFPRTFGGGTRLEIK
notes: as for B4
Take B7: in assay [6], the Bmax came to 2.96 and the Kd is 0.257 nM.

B8: 15D3 DD HC::necitumumab KK HC::MRK16 LC (bispecific antibody, IgG1, V domains shown)
VH 1: EVKVVESGGVLVRPGGSLKLSCAASGFTFSRYTMSWVRQTPEKRLEWVATISSGGGNTYYPDSVKGRFTVSRDNAMSSLYLQMSSLRSEDTALYYCARYGAGDAWFAYWGQGTLVTVSA
VH 2: QVQLQESGPGLVKPSQTLSLICTVSGGSISSGDYYWSWIRQPPGKGLEWIGYIYYSGSTDYNPSLKSRVTMSVDTSKNQFSLKVNSVTAADTAVYYCARVSIFGVGTFDYWGQGTLVTVSS
VL: DVLMTQTPVSLSVSLGDQASISCRSSQSIVHSTGNTYLEWYLQKPGQSPKLLIYKISNRFSGVPDRFSGSGSGTDFTLKISRVEAEDLGVYYCFQASHFPRTFGGGTKLEIK
notes: DD = K392D and K409D, KK = E356K and D399K (EU) in the IgG1 heavy chains; common light chain; also called 15D3DD: necitumumab KK:MRK16; KT3-2KK 15D3DD 1MRK16
As to B8, the EC50 worked out at 33.1 nM in assay [3] and 110 nM in assay [9].

B9: 5F9/UIC2 (5F9 heavy chain with UIC2 light chain) (antibody, human IgG1, V domains shown)
VH: QVQLVQSGAEVKKPGASVKVSCKASGYTFTNYNMHWVRQAPGQRLEWMGTIYPGNDDTSYNQKFKDRVTITADTSASTAYMELSSLRSEDTAVYYCARGGYRAMDYWGQGTLVTVSS
VL: DVVMTQTPRSLPVSLGDQASISCRSSQSLLHSNGNTYLHWYLQKPGQSPKLLIYKVSNRFSGVPDRFSGSGSGTDFTLKISRVEAEDLGVYFCSQSTHIPPWTFGGGTKLDIK
notes: as for B4
In [6], B9 came in with a Bmax of 3.08 and a dissociation constant Kd of 6.3 nM.

B10: 15D3/UIC2 (15D3 heavy chain with UIC2 light chain) (antibody, human IgG1, V domains shown)
VH: EVKVVESGGVLVRPGGSLKLSCAASGFTFSRYTMSWVRQTPEKRLEWVATISSGGGNTYYPDSVKGRFTVSRDNAMSSLYLQMSSLRSEDTALYYCARYGAGDAWFAYWGQGTLVTVSA
VL: DVVMTQTPRSLPVSLGDQASISCRSSQSLLHSNGNTYLHWYLQKPGQSPKLLIYKVSNRFSGVPDRFSGSGSGTDFTLKISRVEAEDLGVYFCSQSTHIPPWTFGGGTKLDIK
notes: as for B4
Consider B10, for which, in assay [8], the Bmax turned out to be 3.45 and the dissociation constant Kd was found to be 169 nM.

B11: 15D3 IgG1 KK/5F9 IgG1 DD/UIC2 (bispecific antibody)
chain 1: not shown
chain 2: not shown
chain 3: DVVMTQTPRSLPVSLGDQASISCRSSQSLLHSNGNTYLHWYLQKPGQSPKLLIYKVSNRFSGVPDRFSGSGSGTDFTLKISRVEAEDLGVYFCSQSTHIPPWTFGGGTKLDIKRTVAAPSVFIFPPSDEQLKSGTASVVCLLNNFYPREAKVQWKVDNALQSGNSQESVTEQDSKDSTYSLSSTLTLSKADYEKHKVYACEVTHQGLSSPVTKSFNRGEC
Consider B11, for which, in assay [7], binding was put at a Kd of 1620 nM.
